Experimental data from PMC2897128 (Nature, 2010).

T1: Sulfolobus solfataricus SRP54 (SRP54 moiety of SRP54*) (Sulfolobus solfataricus, UniProt Q97ZE7 2-432)
T1 sequence (looked up): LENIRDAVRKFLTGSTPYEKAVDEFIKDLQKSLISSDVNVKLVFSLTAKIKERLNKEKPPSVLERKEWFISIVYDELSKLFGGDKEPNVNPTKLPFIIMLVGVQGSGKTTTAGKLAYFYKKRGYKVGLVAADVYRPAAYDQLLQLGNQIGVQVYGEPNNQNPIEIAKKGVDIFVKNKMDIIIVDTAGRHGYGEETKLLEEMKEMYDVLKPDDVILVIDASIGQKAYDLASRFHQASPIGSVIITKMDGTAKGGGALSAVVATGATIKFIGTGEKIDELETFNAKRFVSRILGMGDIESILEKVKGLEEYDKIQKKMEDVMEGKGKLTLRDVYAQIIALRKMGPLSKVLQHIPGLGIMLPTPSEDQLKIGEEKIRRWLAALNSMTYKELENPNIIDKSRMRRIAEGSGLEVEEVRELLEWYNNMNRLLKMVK

B1: SRP54-signal sequence fusion protein (SRP54*) with an 11mer linker (other, Sulfolobus solfataricus | S. cerevisiae)
chain: LENIRDAVRKFLTGSTPYEKAVDEFIKDLQKSLISSDVNVKLVFSLTAKIKERLNKEKPPSVLERKEWFISIVYDELSKLFGGDKEPNVNPTKLPFIIMLVGVQGSGKTTTAGKLAYFYKKRGYKVGLVAADVYRPAAYDQLLQLGNQIGVQVYGEPNNQNPIEIAKKGVDIFVKNKMDIIIVDTAGRHGYGEETKLLEEMKEMYDVLKPDDVILVIDASIGQKAYDLASRFHQASPIGSVIITKMDGTAKGGGALSAVVATGATIKFIGTGEKIDELETFNAKRFVSRILGMGDIESILEKVKGLEEYDKIQKKMEDVMEGKGKLTLRDVYAQIIALRKMGPLSKVLQHIPGLGIMLPTPSEDQLKIGEEKIRRWLAALNSMTYKELENPNIIDKSRMRRIAEGSGLEVEEVRELLEWYNNMNRLLKMVKARSGSGSGSGSKLIRVGIILVLLIWGTVLLLKSIPHH

Legend:
SEC = molecular target: the molecule itself; test: SEC
[1] = molecular target: T1, Sulfolobus solfataricus SRP54 (SRP54 …); test: crystal structure

Row | Binder | stoichiometry N (SEC) | binding result [1]
1 | B1 | ≥ 2 | 
2 | KLIRVGIILVLLIWGTVLLLKSIPHH [signal anchor sequence from S. cerevisiae dipeptidyl-aminopeptidase B (DPAP-B)] |  | binds
